The values below come from US6602687B1, “DNA encoding human ciliary neurotrophic factor and method for producing the protein encoded thereby” (Regeneron Pharmaceuticals, Inc., priority 1989, dated 2003).

“And” between values parts separate entries of the source, which are not always exact repeats. Identical values can stand only once. Like-named read-outs stand apart in the source and are kept apart here.

The subject of test [1] is chick embryonic spinal motorneurons. Put plainly: Survival of chick embryonic spinal motorneurons in culture. Type of test: cell-based. The method, then:
Motorneuron columns were dissected under a stereomicroscope from the lumbar part of the spinal cord of chick embryos on the 6th day of embryonic development and stored in cold calcium and magnesium-free Hanks balanced salt solution supplemented with glucose (4 g/l) (HBSS). The tissues were washed with HBSS and treated with 0.03% trypsin in HBSS at 37° C. for 20 min with gentle shaking, rinsed with cold HBSS and triturated mildly in 3 steps of 8-passage agitation in 1 ml of cold 0.1% soybean trypsin inhibitor (Sigma) in HBSS through a fire-polished siliconized Pasteur pipette. Each supernatant cell suspension was filtered through 50 μm-Nylon mesh, pooled and layered onto 4 ml of cold 6.8% metrizamide (Fluka) in HBSS-25 mM HEPES (pH7.4) in a 12 ml-siliconized conical glass tube. The tube was centrifuged at 400 g for 15 min at 4° C. and the intermediate layer (0.5 ml) was collected into another siliconized tube containing 6.5 ml of cold culture medium (a mixture of glucose (4 g/l)-supplemented Leibovitz's L-15 medium (Gibco), 0.15 M sodium bicarbonate, heat-inactivated and filtered horse serum and penicillin G (10^5 units/ml) at the ratio of 75:15:10:0.1, freshly prepared and buffered with 5% CO2.) After centrifugation at 100×g for 7 min at 4° C., the supernatant was removed and the cells were gently resuspended in culture medium and plated in Greiner 4-well culture dishes (well diameter, 10 mm; C. A. Greiner und Sohne GmbH, Nurtingen, West Germany) at 1000-2000 cells/well. The dishes had been precoated with poly-DL-ornithine (Sigma, 0.5 mg in 0.15 M sodium borate buffer (pH 8.3) overnight at 4° C., rinsed twice with phosphate-buffered saline (PBS) and subsequently coated with laminin (Gibco; 10 μg/ml in the serum-depleted culture medium) and placed in a 5% CO2-incubator until cell plating (5-6 hrs). Cells were incubated at 37° C. in a humidified 5% CO2- and 95% air-incubator. Samples were added one hr after plating and the culture medium changed after 24 hrs and 72 hrs. The initial cell numbers were counted 3 hrs after plating.
In some experiments motor neurons were retrogradely labeled with a fluorescent dye in vivo before cell preparation (U. Dohrman et al., 1986, Dev. Biol. 118:209-221) to identify the motor neuron cell population. A small hole was made in the shell of eggs which had been incubated for 5 days. Small pieces of rhodamine isothiocyanate crystals (Sigma) were inserted at two or three places into each hind limb thigh and the egg hole was sealed with a cellophane tape. The eggs were incubated for another 24 hrs. Some of the operated embryos were then processed for frozen sections after formaldehyde fixation. […] The other embryos were used for cell preparation using the method described above (18.1.1). After 5 hrs in culture cells were rinsed with warm HBSS, fixed with 4% formaldehyde in PBS at room temperature for 20 min, rinsed with PBS and then mounted in glycerol-PBS (1:1) with glass coverslips. Of the total cells approximately 83% were labeled and identified as motorneurons (FIG. 42.) Most of these labeled motorneurons were large cells and the rest were intermediate-size cells. No small cells were labeled. On the other hand, in experiments in which cells were not labeled with a fluorescent dye about 70% of the total cells were large phase-bright cells with round cell somas, about 20% were intermediate-size neurons (most of them may be motorneurons) and about 10% were small immature neurons (they have neuron-like processes with growth cones but have phase-dark semi-flat cell somas). Non-neuronal cells were either not present or accounted for less than 2%. Taken together, one may conclude that at least 83% of the cells are motorneurons while the remainder consists of non-labeled motorneurons, a small number of unidentified intermediate-size neurons and about 10% immature small neurons. […]

In test [2] the test system is motorneurons in the facial nerve nuclei. Put plainly: Unilateral facial nerve lesion in newborn rat with gelfoam implant, motorneuron count. The test is classed as in vivo. How it is done: The facial nerves of newborn rat pups were sectioned unilaterally and small gelfoam implants containing either 5 μg bovine serum albumin or 5 μg CNTF were placed at the lesion sites. […] After one week, the animals were sacrificed and sections of their brainstem, containing a facial nerve nucleus on the same side as the lesioned nerve (ipsilateral to the lesion) and a facial nerve nucleus on the side opposite to the lesion (contralateral to the lesion) were produced. The contralateral facial nucleus served as an internal control. Facial nucleus sections were stained with either Nissl stain (to stain motorneurons) or with antibody to glial fibrillary acidic protein (to detect the respose of glial cells to injury).

Setting [3] is: gelfoam implant impregnated with CNTF, one week.
[4] abbreviates: gelfoam with 5 μg purified rat sciatic nerve CNTF, one week after lesion.
[5] abbreviates: single animals, gelfoam with 5 μg purified rat sciatic nerve CNTF, one week after lesion.

B1: CNTF: ciliary neurotrophic factor; recombinant rat CNTF in Sections 10, 15, 17, purified rat sciatic nerve CNTF in Section 11; see endpoint conditions (protein, UniProt P20294 1-200, looked up)
Ciliary neurotrophic factor: MAFAEQTPLTLHRRDLCSRSIWLARKIRSDLTALMESYVKHQGLNKNINLDSVDGVPVASTDRWSEMTEAERLQENLQAYRTFQGMLTKLLEDQRVHFTPTEGDFHQAIHTLMLQVSAFAYQLEELMVLLEQKIPENEADGMPATVGDGGLFEKKLWGLKVLQELSQWTVRSIHDLRVISSHQMGISALESHYGAKDKQM
With B1, in test [1] (3 days in culture), the “concentration at which the highest survival effect was obtained” value was found to be 1 ng/mL. Besides, the “highest survival effect of the concentration-response curve” value in test [1] (3 days in culture, CNTF = recombinant rat) worked out at 64%. In addition, the “Motoneuron survival (%)” value in test [1] (after 3 days in culture, mean ± SEM (n = 4), IGF-I 1 μg/ml, Basic FGF 30 ng/ml, CNTF 1.5 ng/ml) is 60.7 ± 5.8%. Further, the Survival result in test [1] (after 3 days in culture, one concentration per molecule, Table VI, CNTF rat, rec.) is “+ + +”. For the same molecule, the EC50 in test [1] (motorneuron survival, 3 days in culture) is 0.023 ng/mL. The “EC50 (the concentration required for 50% survival)” value in test [1] (recombinant rat CNTF, day 3) is “about 20 pg/ml”. Further, in test [1] (recombinant rat CNTF, day 3, read-out: EC50 (the concentration required for 50% survival)), the EC50 is around 1 pM. In addition, the “facial nerve motorneurons rescued that would normally have died after axotomy” value in test [2] (CNTF applied to cut stump of newborn rat facial nerve) is “at least 60%”. For the same molecule, in test [2] (setting [3]), the “loss of motorneurons ipsilateral to the lesion” value was around 30% and the “motorneuron pool ipsilateral to the lesion, of normal” value turned out to be 70%. In addition, in test [2] (gelfoam with 5 μg CNTF), the “gliosis in facial nuclei ipsilateral to lesion (anti-GFAP staining), versus BSA treated rats” value was “comparable amount of gliosis”. Also, in test [2] (setting [4]), the “Count of motorneurons in the facial nerve nuclei, Contralateral (Control side), group mean (in brackets)” value is listed as “(3301)” and the “Count of motorneurons in the facial nerve nuclei, Lesion-side, group mean (in brackets)” value was “(2120)”. Also, in test [2] (setting [5]), the “Count of motorneurons in the facial nerve nuclei, Contralateral (Control side)” value is 3425 and 2990 and 3490; the “Count of motorneurons in the facial nerve nuclei, Lesion-side” value is 2205 and 3445 and 1270 and 3095.
